Test results taken from patent US20210017226A1 (PEPTION, published 2021).
Ends that are not written are not given here.

T1: PTD8 (Ec-AP_159-168), synthetic peptide LVAHVTSRKC (Escherichia coli)
T1 construct: also called control peptide (unrelated) in the Cas9 blots
T1 peptide: LVAHVTSRKC

T2: PTD10 (Hs-PDGF-B_136-145), synthetic peptide IEIVRKKPIFC (human)
T2 peptide: IEIVRKKPIFC

T3: purified horseradish peroxidase (HRP) protein (horseradish, UniProt P00433 31-338)
T3 sequence (looked up): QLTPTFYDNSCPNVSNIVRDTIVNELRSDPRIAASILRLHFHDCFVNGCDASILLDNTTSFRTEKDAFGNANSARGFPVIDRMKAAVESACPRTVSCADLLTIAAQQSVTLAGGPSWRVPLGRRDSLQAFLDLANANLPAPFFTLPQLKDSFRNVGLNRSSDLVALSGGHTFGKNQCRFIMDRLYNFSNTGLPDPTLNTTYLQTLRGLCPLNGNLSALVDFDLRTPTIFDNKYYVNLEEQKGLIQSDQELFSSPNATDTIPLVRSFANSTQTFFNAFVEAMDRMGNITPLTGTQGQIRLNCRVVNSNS

B1: V5C2-L-HRPC2, purified polypeptide with two CAAP box dimer arms designed to interact with V5 epitope and HRP (designed binder)
chain: MSRKEARELCYPENGLEALIRSGGGSGGGSGGGSYYLRKRILCYPENQVLERSNEGSGSKLLEHHHHHH
B2: PTD20 (2GS6H), synthetic linker-His-tag oligopeptide (peptide)
peptide: GSGSHHHHHH
notes: also called linker-His-tag only; negative control
B3: C9-813-CAA2 (dimer, parallel-linker-antiparallel), recombinant CAAP oligopeptide-AP fusion protein (designed binder, not shown: small tags and cut ends; large carriers)
chain: MHHHHHHELLLSVEVQQLCYPENLEYLFIEKL
notes: also called rAb C9-813-CAA2; dimer construct

Columns and labels:
[1] = biological target: T4, Cas9 protein without any tag (no tag), recombinant Streptococcus pyogenes Cas9 (Streptococcus pyogenes, UniProt Q99ZW2 1-1368); experiment: dot blot (non-denatured) and western blot (denatured), anti-6His Ab-HRP detection
T4 construct: also called Cas9 (no tag); tagless Cas9

[2] = biological target: T1, PTD8 (Ec-AP_159-168), synthetic peptide …; experiment: dot blot, peptide spotted on NC membrane, anti-6His Ab-HRP detection
[3] = biological target: T2, PTD10 (Hs-PDGF-B_136-145), synthetic …; experiment: dot blot, anti-6His Ab-HRP detection
[4] = biological target: T3, purified horseradish peroxidase (HRP) …; experiment: dot blot, HRP captured by V5C2-L-HRPC2 bound to immobilized PTD19, chromogenic substrate
[5] = biological target: T1, PTD8 (Ec-AP_159-168), synthetic peptide …; experiment: dot blot, anti-6His Ab-HRP detection
[6] = biological target: T1, PTD8 (Ec-AP_159-168), synthetic peptide …; experiment: dot blot, AP fusion as 1st Ab, NBT/BCIP

T4 sequence (Q99ZW2 whole entry): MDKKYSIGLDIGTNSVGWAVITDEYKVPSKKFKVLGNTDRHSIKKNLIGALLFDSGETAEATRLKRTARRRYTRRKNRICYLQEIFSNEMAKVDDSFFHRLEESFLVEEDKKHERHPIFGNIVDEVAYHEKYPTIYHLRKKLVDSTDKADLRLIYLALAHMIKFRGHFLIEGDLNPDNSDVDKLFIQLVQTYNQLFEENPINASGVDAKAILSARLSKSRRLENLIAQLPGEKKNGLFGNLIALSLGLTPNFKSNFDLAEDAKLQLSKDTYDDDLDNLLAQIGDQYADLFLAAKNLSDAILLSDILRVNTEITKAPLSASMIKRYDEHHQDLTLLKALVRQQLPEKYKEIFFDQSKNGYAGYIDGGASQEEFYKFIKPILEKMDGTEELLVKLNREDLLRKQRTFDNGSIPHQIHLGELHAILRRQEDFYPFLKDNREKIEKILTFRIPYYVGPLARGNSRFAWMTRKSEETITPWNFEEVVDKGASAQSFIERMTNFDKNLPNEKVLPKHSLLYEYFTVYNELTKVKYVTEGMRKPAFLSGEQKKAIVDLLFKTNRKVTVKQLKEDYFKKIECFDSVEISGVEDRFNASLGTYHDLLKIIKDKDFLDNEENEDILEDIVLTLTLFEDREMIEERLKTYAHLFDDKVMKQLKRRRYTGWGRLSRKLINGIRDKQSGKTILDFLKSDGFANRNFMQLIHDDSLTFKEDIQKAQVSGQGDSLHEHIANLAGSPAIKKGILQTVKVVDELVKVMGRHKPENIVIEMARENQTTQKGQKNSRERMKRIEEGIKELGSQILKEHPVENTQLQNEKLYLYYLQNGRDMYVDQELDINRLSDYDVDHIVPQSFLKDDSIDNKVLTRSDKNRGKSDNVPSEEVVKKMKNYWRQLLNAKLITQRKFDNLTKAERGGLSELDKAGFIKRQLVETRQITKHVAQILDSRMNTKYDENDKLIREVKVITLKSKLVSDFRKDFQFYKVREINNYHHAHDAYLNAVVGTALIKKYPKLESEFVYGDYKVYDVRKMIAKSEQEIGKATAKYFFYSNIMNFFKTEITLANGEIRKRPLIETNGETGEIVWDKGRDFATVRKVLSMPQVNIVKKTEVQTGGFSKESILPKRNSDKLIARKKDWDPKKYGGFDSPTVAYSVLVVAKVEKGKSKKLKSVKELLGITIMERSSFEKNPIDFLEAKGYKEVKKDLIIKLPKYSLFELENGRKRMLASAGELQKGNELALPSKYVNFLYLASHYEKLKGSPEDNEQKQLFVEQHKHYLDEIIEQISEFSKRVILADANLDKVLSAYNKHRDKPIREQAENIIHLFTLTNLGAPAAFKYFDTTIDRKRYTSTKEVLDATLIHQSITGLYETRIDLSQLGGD

Binder | binding result [3] | binding result [5] | other results
LLQVDVILLCYPENLEQIKIRLFGSGSHHHHHH (designed binder, also: dimer, also called sAb dimer; CCAAP sAb dimer) [PTD14 (Sp-C9_CAA813-821PAPH), synthetic His-tagged CAAP oligopeptide dimer] |  |  | binding result [1]: binds; binding result [2]: no binding
DLDYAQLRDKCYPENEDRLQSYDLDGSGSHHHHHH (designed binder, also: dimer, parallel and antiparallel, also called Anti-PDGF sAb) | binds |  | 
B1 |  |  | binding result [4]: binds
B2 | no binding | no binding | 
EYRLYLRALCYPENLSRAYLSYEGSGSHHHHHH (designed binder, also: dimer, parallel and antiparallel) |  | binds | 
B3 |  |  | binding result [6]: no binding
